From patent publication US20140308285A1 (Amgen, published 2014)
Like-named read-outs stand apart in the source and are kept apart here.

T1: cynomolgus monkey CD3 (CD3 epsilon chain) on cynomolgus monkey T cells (cynomolgus monkey (Macaca fascicularis), UniProt Q95LI5 22-198)
T1 chain: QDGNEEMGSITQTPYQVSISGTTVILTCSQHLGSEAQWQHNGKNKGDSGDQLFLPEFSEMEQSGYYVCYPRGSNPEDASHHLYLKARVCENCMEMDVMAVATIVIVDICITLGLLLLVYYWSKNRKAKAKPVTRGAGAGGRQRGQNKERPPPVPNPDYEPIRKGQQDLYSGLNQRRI


Tests used:
[1] = target: T1, cynomolgus monkey CD3 (CD3 epsilon …); assay: cell-based or functional assay
[2] = target: T2, human CD3 (CD3 epsilon chain) on human T cells (human, UniProt P07766 22-207); assay: FACS on isolated human T cells, FITC anti-human light chain secondary antibody
T2 construct: The assay used isolated human T cells, which carry CD3 as part of the TCR-CD3 complex; also called CD3ε
Description: (§1) The heterodimeric bispecific antibodies described in Example 1 were produced in HEK 293 cells and were assayed by fluorescence activated cell sorting (FACS) for binding to T cells, which express CD3, and to a human ovarian cancer cell line, Ovcar-8, which expresses mesothelin. Briefly, the heterodimeric bispecific antibodies were incubated with about 50,000 Ovcar-8 cells or isolated human or cynomolgus monkey T cells at 4° C. for one hour. The cells were then washed and stained with a fluorescein isothiocyanate (FITC)-conjugated anti-human light chain secondary antibody and analyzed by flow cytometry. The relative binding was represented by the geometric mean of fluorescence intensity.
(§2) Another set of constructs was made by methods similar to those used above using the same pair of anti-MSLN VH and VL regions as used in most constructs described above and a different pair of anti-CD3 VH and VL regions than used in most of the constructs described above. […] These constructs were tested using the assays described above, as well as the cynomolgus monkey T cell-dependent cell cytolysis (called “cyno TDCC”) assay described below.

[3] = target: T1, cynomolgus monkey CD3 (CD3 epsilon …); assay: FACS on isolated cynomolgus monkey T cells, FITC anti-human light chain secondary antibody
Description: as §1, §2

[4] = target: T2, human CD3 (CD3 epsilon chain) on human …; assay: FACS on isolated human T cells, FITC anti-human light chain secondary antibody; remark: listed apart in the source
Description: as §1

T2 sequence (P07766 22-207 limits assumed): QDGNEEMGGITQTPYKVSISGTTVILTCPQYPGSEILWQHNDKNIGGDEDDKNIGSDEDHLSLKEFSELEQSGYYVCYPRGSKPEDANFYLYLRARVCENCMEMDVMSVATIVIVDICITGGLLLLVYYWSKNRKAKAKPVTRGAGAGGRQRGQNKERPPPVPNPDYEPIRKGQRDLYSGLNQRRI

Binder	Cyno TDCC EC50 (pM), Ovcar-8 cells with cynomolgus monkey T cells [1]	Cyno TDCC Max killing (%), Ovcar-8 cells with cynomolgus monkey T cells [1]	FACS binding (geometric mean) [2]	FACS binding (geometric mean) [3]	FACS binding (geometric mean) [4]
H69070.4 (bispecific antibody) chain 1: QVQLVESGGGVVQPGRSLRLSCAASGFTFSSYGMHWVRQAPGKGLEWVAVISYPGNTKYYADSVKGRFTISRDNSKNTLYLQMNSLRAEDTAVYFCARDQKEWRLIFDYWGQGTLVTVSSASTKGPQVQLQESGPGLVKPSETLSLTCTVSGGSIISHYWSWIRQPPGKGLEWIGYIYYSGSTNYNPSLKSRVTISVDTSKNQFSLKLTSVTAADTAVYYCARDGWSAFDYWGQGTLVTVSSASTKGPSVFPLAPCSRSTSESTAALGCLVKDYFPEPVTVSWNSGALTSGVHTFPAVLQSSGLYSLSSVVTVPSSNFGTQTYTCNVDHKPSNTKVDKTVGGGGSAAAVPRDLEVVAATPTSLLISWDAPHHGVAYYRITYGETGGNSPVQEFTVPGSKSTATISGLKPGVDYTINVYAVLAYPRGYPLSKPISINYRTDYKDDDDKGSSHHHHHH chain 2: DIQMTQSPSSVSASVGDRVTITCRASQGISSWLAWYQQKPGKAPKLLIYAASSLQSGVPSRFSGSGSGAAFTLTISSLQPEDFATYFCQQANSFPLTFAGGTKVDIKRTVAAPDIQMTQSPSSLSASVGDRVTITCRASQGIRNALGWYQQKPGKAPKRLIYAASSLQSGVPSRFSGSGSGTEFTLTISSLQPEDFATYYCLQHNSYPRTFGQGTKVEIRRTVAAPSVFIFPPSDEQLKSGTASVVCLLNNFYPREAKVQWKVDNALQSGNSQESVTEQDSKDSTYSLSSTLTLSKADYEKHKVYACEVTHQGLSSPVTKSFNRGEC	3 pM	88%	9	127	
H69071.4 (bispecific antibody, also called H69071.2) chain 1: QVQLQESGPGLVKPSQTLSLTCTVSGGSINNNNYYWTWIRQHPGKGLEWIGYIYYSGSTFYNPSLKSRVTISVDTSKTQFSLKLSSVTAADTAVYYCAREDTMTGLDVWGQGTLVTVSSGGGGSGGGGSDIQMTQSPSSVSASVGDRVTITCRASQGISSWLAWYQQKPGKAPKLLIYAASSLQSGVPSRFSGSGSGAAFTLTISSLQPEDFATYFCQQANSFPLTFAGGTKVDIKRASTKGPSVFPLAPCSRSTSESTAALGCLVKDYFPEPVTVSWNSGALTSGVHTFPAVLQSSGLYSLSSVVTVPSSNFGTQTYTCNVDHKPSNTKVDKTVGGGGSAAAVPRDLEVVAATPTSLLISWDAPHHGVAYYRITYGETGGNSPVQEFTVPGSKSTATISGLKPGVDYTINVYAVLAYPRGYPLSKPISINYRTDYKDDDDKGSSHHHHHH chain 2: QVQLVESGGGVVQPGRSLRLSCAASGFTFSSYGMHWVRQAPGKGLEWVAVISYPGNTKYYADSVKGRFTISRDNSKNTLYLQMNSLRAEDTAVYFCARDQKEWRLIFDYWGQGTLVTVSSGGGGSGGGGSDIQMTQSPSSLSASVGDRVTITCRASQSINNYLNWYQQKPGKAPTLLIYAASSLQSGVPSRFSGSRSGTDFTLTISSLQPEDFAAYFCQQTYSNPTFGQGTKVEVKRTVAAPSVFIFPPSDEQLKSGTASVVCLLNNFYPREAKVQWKVDNALQSGNSQESVTEQDSKDSTYSLSSTLTLSKADYEKHKVYACEVTHQGLSSPVTKSFNRGEC	3.2 pM	88%	16	121	
H69072.4 (bispecific antibody) chain 1: DIQMTQSPSSVSASVGDRVTITCRASQGISSWLAWYQQKPGKAPKLLIYAASSLQSGVPSRFSGSGSGAAFTLTISSLQPEDFATYFCQQANSFPLTFAGGTKVDIKRGGGGSGGGGSQVQLQESGPGLVKPSQTLSLTCTVSGGSINNNNYYWTWIRQHPGKGLEWIGYIYYSGSTFYNPSLKSRVTISVDTSKTQFSLKLSSVTAADTAVYYCAREDTMTGLDVWGQGTTVTVSSASTKGPSVFPLAPCSRSTSESTAALGCLVKDYFPEPVTVSWNSGALTSGVHTFPAVLQSSGLYSLSSVVTVPSSNFGTQTYTCNVDHKPSNTKVDKTVGGGGSAAAVPRDLEVVAATPTSLLISWDAPHHGVAYYRITYGETGGNSPVQEFTVPGSKSTATISGLKPGVDYTINVYAVLAYPRGYPLSKPISINYRTDYKDDDDKGSSHHHHHH chain 2: DIQMTQSPSSLSASVGDRVTITCRASQSINNYLNWYQQKPGKAPTLLIYAASSLQSGVPSRFSGSRSGTDFTLTISSLQPEDFAAYFCQQTYSNPTFGQGTKVEVKGGGGSGGGGSQVQLVESGGGVVQPGRSLRLSCAASGFTFSSYGMHWVRQAPGKGLEWVAVISYPGNTKYYADSVKGRFTISRDNSKNTLYLQMNSLRAEDTAVYFCARDQKEWRLIFDYWGQGTLVTVSSRTVAAPSVFIFPPSDEQLKSGTASVVCLLNNFYPREAKVQWKVDNALQSGNSQESVTEQDSKDSTYSLSSTLTLSKADYEKHKVYACEVTHQGLSSPVTKSFNRGEC	18.8 pM	91%	11	110	
H71365.2 (bispecific antibody, also called H71364.2) chain 1: QVQLVESGGGVVQPGRSLRLSCAASGFTFSSYGMHWVRQAPGKGLEWVAVISYPGNTKYYADSVKGRFTISRDNSKNTLYLQMNSLRAEDTAVYFCARDQKEWRLIFDYWGQGTLVTVSSGGGGSGGGGSQVQLQESGPGLVKPSQTLSLTCTVSGGSINNNNYYWTWIRQHPGKGLEWIGYIYYSGSTFYNPSLKSRVTISVDTSKTQFSLKLSSVTAADTAVYYCAREDTMTGLDVWGQGTTVTVSSASTKGPSVFPLAPCSRSTSESTAALGCLVKDYFPEPVTVSWNSGALTSGVHTFPAVLQSSGLYSLSSVVTVPSSNFGTQTYTCNVDHKPSNTKVDKTVGGGGSAAAVPRDLEVVAATPTSLLISWDAPHHGVAYYRITYGETGGNSPVQEFTVPGSKSTATISGLKPGVDYTINVYAVLAYPRGYPLSKPISINYRTDYKDDDDKGSSHHHHHH chain 2: DIQMTQSPSSVSASVGDRVTITCRASQGISSWLAWYQQKPGKAPKLLIYAASSLQSGVPSRFSGSGSGAAFTLTISSLQPEDFATYFCQQANSFPLTFAGGTKVDIKRGGGGSGGGGSDIQMTQSPSSLSASVGDRVTITCRASQSINNYLNWYQQKPGKAPTLLIYAASSLQSGVPSRFSGSRSGTDFTLTISSLQPEDFAAYFCQQTYSNPTFGQGTKVEVKRTVAAPSVFIFPPSDEQLKSGTASVVCLLNNFYPREAKVQWKVDNALQSGNSQESVTEQDSKDSTYSLSSTLTLSKADYEKHKVYACEVTHQGLSSPVTKSFNRGEC	8.1 pM	86%	66	276	
P57216.9 (bispecific antibody) chain 1: QVQLQESGPGLVKPSQTLSLTCTVSGGSINNNNYYWTWIRQHPGKGLEWIGYIYYSGSTFYNPSLKSRVTISVDTSKTQFSLKLSSVTAADTAVYYCAREDTMTGLDVWGQGTLVTVSSASTKGPEVQLVESGGGLVKPGVSLRLSCAASGFTFSRYSMNWVRQAPGKGLEWVSSISSSGTYIKYADSVKGRFTISRDNAKNSLNLQMNSLRAEDTAVYYCARDRDRYPLDYWGQGTLVTVSSASTKGPSVFPLAPCSRSTSESTAALGCLVKDYFPEPVTVSWNSGALTSGVHTFPAVLQSSGLYSLSSVVTVPSSNFGTQTYTCNVDHKPSNTKVDKTVGGGGSAAAVPRDLEVVAATPTSLLISWDAPHHGVAYYRITYGETGGNSPVQEFTVPGSKSTATISGLKPGVDYTINVYAVLAYPRGYPLSKPISINYRTDYKDDDDKGSSHHHHHH chain 2: DIQMTQSPSSLSASVGDRVTITCRASQSINNYLNWYQQKPGKAPTLLIYAASSLQSGVPSRFSGSRSGTDFTLTISSLQPEDFAAYFCQQTYSNPTFGQGTKVEVKRTVAAPSSYELTQPPSVSVSPGQTARITCSGDALPKKYAYWYQQKSGQAPVLVIYEATKRPSGIPERFSGSSSGTMATLTLSGAQVEDEADYYCYSTDSTNYHWVFGGGTKLTVLGQPKAAPSVTLFPPSSEELQANKATLVCLISDFYPGAVTVAWKADSSPVKAGVETTTPSKQSNNKYAASSYLSLTPEQWKSHRSYSCQVTHEGSTVEKTVAPTECS					103
